Source: patent US20090217400

Molecular target: T1, wild type Cre recombinase, P06956
T1 chain: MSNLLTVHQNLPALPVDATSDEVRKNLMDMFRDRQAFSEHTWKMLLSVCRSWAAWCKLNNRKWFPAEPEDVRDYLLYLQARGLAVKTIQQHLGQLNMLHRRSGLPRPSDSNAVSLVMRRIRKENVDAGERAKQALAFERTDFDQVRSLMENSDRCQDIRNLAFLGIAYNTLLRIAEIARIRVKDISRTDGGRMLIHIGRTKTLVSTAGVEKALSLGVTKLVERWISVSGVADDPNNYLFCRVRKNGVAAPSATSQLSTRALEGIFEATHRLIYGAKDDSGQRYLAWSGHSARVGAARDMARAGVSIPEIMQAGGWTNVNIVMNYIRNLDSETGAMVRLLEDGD

B1: Cre mutant CM2 [C2(+/-)#4] (protein)
chain: MSNLLTVHQNLPALPVDATSDEVRKNLMDMFRDRQAFSEHTWKMLLSVCRSWAAWCKLNNRKWFPAEPEDVRDYLLYLQARGLAVKTIQQHLGQLNMLHRRSGLPRPSDSNAVSLVMRRIRKENVDAGERAKQALAFERTDFDQVRSLMENSDRCQDIRNLAFLGIAYNTLLRAAEIARIRVKDISRTDGGRMLIHIGRTKTLVSTAGVEKALSLGVTKLVERWISVSGVADDPNNYLFCRVRKNGVAAPSATSQLSLSALHGIFGATHRLIYGAKDDSGQRYLAWSGHSARVGAARDMARAGVSIPEIMQAGGWTNVNIVMNYIRNLDSETGAMVRLLEDGD
B1 was tested, and the “catalytic efficiency of recombination of the asymmetric loxP-M7 substrate (wt Cre-CM2 mixture compared with CM1)” value was “both the wt Cre-CM2 mixture and CM1 demonstrated comparable catalytic efficiency”, the “recombination extent after 30 min (loxP-M7 substrate, wt Cre-CM2 mixture, 30 nM enzyme)” value was “approximately 20% after 30 min” and the “recombination extent after 90 min (loxP-M7 substrate, wt Cre-CM2 mixture, 30 nM enzyme)” value was 25-30% after 90 min. The “recombination rate (observed rate constant, loxP-M7 substrate, wt Cre-CM2 mixture, 30 nM enzyme)” value was 0.034 and 0.048 min-1, respectively and the “substrate recombination in 1 h (in vitro recombination of loxP-M7 DNA substrate, equal wt Cre-CM2 mixture at 30 nM and 60 nM total enzyme)” value was “approximately 35% substrate recombination in 1 h”.
